The results in this text go back to paper PMC3461317 (Biochemistry, 2010).

B1: FlK-F36A (enzyme, Streptomyces cattleya)
chain: MKDGMRVGERFTHDFVVPPHKTVRHLYPESPEFAEAPEVFATGFMVGLMEWACVRAMAPYLEPGEGSLGTAICVTHTAATPPGLTVTVTAELRSVEGRRLSWRVSAHDGVDEIGSGTHERAVIHLEKFNAKVRQKTPAG
B2: FlK-E50Q (enzyme, Streptomyces cattleya)
chain: MKDGMRVGERFTHDFVVPPHKTVRHLYPESPEFAEFPEVFATGFMVGLMQWACVRAMAPYLEPGEGSLGTAICVTHTAATPPGLTVTVTAELRSVEGRRLSWRVSAHDGVDEIGSGTHERAVIHLEKFNAKVRQKTPAG

The first data set relates to CC(C)(COP(=O)(O)OP(=O)(O)OC[C@H]1O[C@@H](n2cnc3c(N)ncnc32)[C@H](O)[C@@H]1OP(=O)(O)O)[C@@H](O)C(=O)NCCC(=O)NCCSC(=O)CF. The data set is described as follows: purified protein. Type of data set: biochemical, Streptantibioticus cattleyicolor. The following applies: 100 mM Tris-HCl pH 7.6, 25 °C, 0.5 mM DTNB.
A word on the Km: it is the substrate concentration at which the rate is half of its maximum. The term kcat denotes the maximal rate divided by the concentration of active sites. The term kcat/Km denotes the second-order rate constant that governs catalysis at low substrate concentration. For FlK (Streptantibioticus cattleyicolor), the Km was 8 ± 1 µM, the kcat was 390 ± 20 s⁻¹ and the kcat/Km turned out to be 5e+07 ± 1e+07 M⁻¹ s⁻¹.

On to “FlK (Streptantibioticus cattleyicolor; F33A)”, for which the Km result was “(1.5 ± 0.4) × 10^3 μM”, the kcat was 27 ± 4 s⁻¹ and the kcat/Km came to 18000 ± 5000 M⁻¹ s⁻¹.

As for “FlK (Streptantibioticus cattleyicolor; F36A)”, the Michaelis-Menten constant (Km) entry is “(7.1 ± 0.8) × 10^2 μM”, the kcat worked out at 270 ± 20 s⁻¹ and the kcat/Km is 370000 ± 50000 M⁻¹ s⁻¹.

With “FlK (Streptantibioticus cattleyicolor; H76A)”, the Km entry is listed as “(2.0 ± 0.7) × 10^1 μM”, the kcat stood at 0.003 ± 0.0003 s⁻¹ and the kcat/Km was 150 ± 50 M⁻¹ s⁻¹.

Consider “FlK (Streptantibioticus cattleyicolor; L26A)”, for which the Km entry is given as “(1.2 ± 0.2) × 10^2 μM”, the kcat came to 6.7 ± 0.1 s⁻¹ and the kcat/Km amounted to 57000 ± 8000 M⁻¹ s⁻¹.

Regarding “FlK (Streptantibioticus cattleyicolor; T42A)”, the Km entry was “(1.1 ± 0.4) × 10^2 μM”, the kcat is 0.45 ± 0.09 s⁻¹ and the kcat/Km was 4000 ± 2000 M⁻¹ s⁻¹.

Take “FlK (Streptantibioticus cattleyicolor; T42C)”: the Km entry is on record as “(3.6 ± 1) × 10^2 μM”, the kcat came out at 11 ± 2 s⁻¹ and the kcat/Km is 30000 ± 10000 M⁻¹ s⁻¹.

“FlK (Streptantibioticus cattleyicolor; T42S)”: the Km entry is reported as “(6 ± 2) × 10^1 μM”, the kcat was determined as 19 ± 4 s⁻¹ and the kcat/Km was determined as 300000 ± 100000 M⁻¹ s⁻¹.

As for “FlK (Streptantibioticus cattleyicolor; V23A)”, the Km entry is reported as “(3.0 ± 1.5) × 10^2 μM”, the kcat was 150 ± 30 s⁻¹ and the kcat/Km worked out at 500000 ± 300000 M⁻¹ s⁻¹.

The test system of another data set is CC(=O)SCCNC(=O)CCNC(=O)[C@H](O)C(C)(C)COP(=O)(O)OP(=O)(O)OC[C@H]1O[C@@H](n2cnc3c(N)ncnc32)[C@H](O)[C@@H]1OP(=O)(O)O. The data set is described as follows: purified protein. Type of data set: biochemical, Streptantibioticus cattleyicolor. The settings on record: 100 mM Tris-HCl pH 7.6, 25 °C, 0.5 mM DTNB.
In the case of FlK (Streptantibioticus cattleyicolor), the Km entry is “(2.1 ± 0.5) × 10^3 μM”, the kcat was 0.06 ± 0.01 s⁻¹ and the kcat/Km stood at 30 ± 10 M⁻¹ s⁻¹.

Turning to “FlK (Streptantibioticus cattleyicolor; T42S)”, the Km result is given as “(6.1 ± 0.9) × 10^1 μM”, the kcat was 0.01 ± 0.001 s⁻¹ and the kcat/Km turned out to be 160 ± 30 M⁻¹ s⁻¹.

The next data set concerns the molecule itself. The data set is described as follows: crystal structure.
Conditions: not given
As for B1, the binding result is reported as “binds”.

A further data set deals with the molecule itself. The data set is described as follows: SEC.
Conditions: not given
The term stoichiometry N denotes the number of molecules, sites or subunits per partner or assembly. Turning to B2, the “stoichiometry N” value came to 2.
